Biological target: HLA-A*02:03
Assay: IEDB peptide-MHC binding, purified MHC/competitive/radioactivity; ≥ and ≤ were set here for values at or beyond the usual limits of such assays
Conditions: source organism: Vaccinia virus WR

| Sequence | IC50 [nM] |
| --- | --- |
| VMYAFTTPLI | 4.8 |
| VQEFIFSAL | 466 |
| VTFINDYANL | 247 |
| VTLFIDRGSI | 2250 |
| VVISVIFYFI | 755 |
| WISDNTHIYL | 1.2 |
| WLGAAITLVV | 78 |
| WLKDSAIMV | 28 |
| WVMDTLNGI | 1 |
| WVMDTLNGIM | 194 |
| YAAEMVEYL | 2.1 |
| YASLTTIGT | 144 |
| YIAGLKIEEI | 5.3 |
| YIALCKVTV | 24 |
| YIILFILFFA | 674 |
| YIMRVMANNV | 2 |
| YIPPCQCTV | 445 |
| YLGIFKNNDV | 17 |

| Sequence | IC50 [nM] |
| --- | --- |
| YLGPRVCWL | 3.4 |
| YLLFNHFSV | 1.6 |
| YLRGHTESI | 0.18 |
| YLRLYIILA | 52 |
| YLYNKYSFKL | 0.035 |
| YLYTEYFLFL | 0.56 |
| YMSNLFDIPL | 10 |
| YMVTDKTAYI | 0.28 |
| YQSFLFWFL | 2.5 |
| YTISSESLV | 38 |
| YTVEFDRDKV | 154 |
| YVGDTSMMVI | 220 |
| YVHEGVSYEV | 71 |
| YVILKDPRI | 203 |
| YVIPDELIDV | 14 |
| YVSPTEMVDV | 50 |
| YVSVMNFIPI | 152 |

Biological target: HLA-A*02:06
Assay: as above
Conditions: source organism: Hepacivirus hominis

| Sequence | IC50 [nM] |
| --- | --- |
| VLAGGVLAAV | 33 |
| VLMTHFFSV | 6.1 |
| VLMTHFFSVL | 112 |
| VLMVDSFDPV | 31 |
| VLVGGVLAAL | 141 |
| YMLVLAEALI | 512 |
| YSMAGNWAKV | 425 |
| YTLLGCWSFV | 146 |

Same assay, conditions: source organism: Influenza A virus

| Sequence | IC50 [nM] |
| --- | --- |
| VNNAVVMPA | 828 |
| WISFAISCFL | 819 |
| WSYNAELLVA | 15 |
| YNAELLVLL | 474 |

Same assay, conditions: source organism: Mammarenavirus guanaritoense

| Sequence | IC50 [nM] |
| --- | --- |
| YCNYTRFWYI | 81 |

Same assay, conditions: source organism: Mammarenavirus whitewaterense

| Sequence | IC50 [nM] |
| --- | --- |
| YCNYTKFWYV | 6.5 |

Same assay, conditions: source organism: SARS-CoV1

| Sequence | IC50 [nM] |
| --- | --- |
| VLWAHGFEL | 20 |
| VMCGGSLYV | 6.8 |
| VMYASALVLL | 41 |
| VVFLHVTYV | 3.9 |
| VVHGYFTEV | 2.6 |
| WLLWPVTLA | 17 |
| WLMWFIISIV | 107 |
| WLVIGVAFL | 180 |
| YASALVLLI | 8.7 |
| YIFFASFYYI | 0.8 |
| YIWKSYVHI | 8.9 |
| YLMCLSPLM | 1.1 |
| YLMCLSPLMA | 1.3 |
| YLSSVLLAL | 8.2 |
| YMLFTKFFYL | 20 |
| YQCGHYTHI | 9.2 |

Same assay, conditions: source organism: Vaccinia virus WR

| Sequence | IC50 [nM] |
| --- | --- |
| VITYCLVTHM | 2620 |
| VLALYSPPL | 33 |
| VLIAGIILLI | 1020 |
| VMYAFTTPL | 5.7 |
| VMYAFTTPLI | 12 |
| VQEFIFSAL | 198 |
| VTFINDYANL | 148 |
| VTLFIDRGSI | 3010 |
| VVISVIFYFI | 542 |
| WISDNTHIYL | 1.8 |
| WLGAAITLVV | 1840 |
| WLKDSAIMV | 2280 |
| WVMDTLNGI | 0.73 |
| WVMDTLNGIM | 129 |
| YAAEMVEYL | 12 |
| YASLTTIGT | 161 |
| YIAGLKIEEI | 134 |
| YIALCKVTV | 19 |
| YIILFILFFA | 1050 |
| YIMRVMANNV | 14 |

| Sequence | IC50 [nM] |
| --- | --- |
| YIPPCQCTV | 92 |
| YLGIFKNNDV | 285 |
| YLGPRVCWL | 23 |
| YLLFNHFSV | 0.73 |
| YLRGHTESI | 91 |
| YLRLYIILA | 4180 |
| YLYNKYSFKL | 0.14 |
| YLYTEYFLFL | 0.007 |
| YMSNLFDIPL | 127 |
| YMVTDKTAYI | 6.1 |
| YQSFLFWFL | 40 |
| YTISSESLV | 54 |
| YTVEFDRDKV | 22 |
| YVGDTSMMVI | 324 |
| YVHEGVSYEV | 9.1 |
| YVILKDPRI | 12 |
| YVIPDELIDV | 12 |
| YVSPTEMVDV | 5.2 |
| YVSVMNFIPI | 0.11 |

Biological target: HLA-A*68:02
Assay: as above
Conditions: source organism: Hepacivirus hominis

| Sequence | IC50 [nM] |
| --- | --- |
| VLAGGVLAAV | 59 |
| VLMTHFFSV | 103 |
| VLMTHFFSVL | 4690 |
| VLMVDSFDPV | 1520 |
| VLVGGVLAAL | 150 |
| YMLVLAEALI | 974 |
| YSMAGNWAKV | 28 |
| YTLLGCWSFV | 182 |

Same assay, conditions: source organism: Influenza A virus

| Sequence | IC50 [nM] |
| --- | --- |
| VNNAVVMPA | 1910 |
| WISFAISCFL | 364 |
| WSYNAELLVA | 1620 |
| YNAELLVLL | 44 |

Same assay, conditions: source organism: Mammarenavirus guanaritoense

| Sequence | IC50 [nM] |
| --- | --- |
| YCNYTRFWYI | 1340 |

Same assay, conditions: source organism: Mammarenavirus whitewaterense

| Sequence | IC50 [nM] |
| --- | --- |
| YCNYTKFWYV | 490 |

Same assay, conditions: source organism: SARS-CoV1

| Sequence | IC50 [nM] |
| --- | --- |
| VLWAHGFEL | 3890 |
| VMCGGSLYV | 2910 |
| VMYASALVLL | 756 |
| VVFLHVTYV | 1 |
| VVHGYFTEV | 24 |
| WLLWPVTLA | 151 |
| WLMWFIISIV | 2890 |
| WLVIGVAFL | 127 |
| YASALVLLI | 10 |
| YIFFASFYYI | 2.2 |
| YIWKSYVHI | 104 |
| YLMCLSPLM | 1240 |
| YLMCLSPLMA | 166 |
| YLSSVLLAL | 10 |
| YMLFTKFFYL | 9.9 |
| YQCGHYTHI | 2920 |

Same assay, conditions: source organism: Vaccinia virus WR

| Sequence | IC50 [nM] |
| --- | --- |
| VITYCLVTHM | 387 |
| VLALYSPPL | 1400 |
| VLIAGIILLI | 33 |
| VMYAFTTPL | 112 |
| VMYAFTTPLI | 132 |
| VQEFIFSAL | 552 |
| VTFINDYANL | 527 |
| VTLFIDRGSI | 14 |
| VVISVIFYFI | 583 |
| WISDNTHIYL | 4.8 |
| WLGAAITLVV | 264 |
| WLKDSAIMV | 1010 |
| WVMDTLNGI | 0.44 |
| WVMDTLNGIM | 101 |
| YAAEMVEYL | 13 |
| YASLTTIGT | 52 |
| YIAGLKIEEI | 669 |
| YIALCKVTV | 48 |
| YIILFILFFA | 270 |
| YIMRVMANNV | 42 |

| Sequence | IC50 [nM] |
| --- | --- |
| YIPPCQCTV | 228 |
| YLGIFKNNDV | 696 |
| YLGPRVCWL | 514 |
| YLLFNHFSV | 39 |
| YLRGHTESI | 506 |
| YLRLYIILA | 2720 |
| YLYNKYSFKL | 4.8 |
| YLYTEYFLFL | 76 |
| YMSNLFDIPL | 471 |
| YMVTDKTAYI | 1.5 |
| YQSFLFWFL | 87 |
| YTISSESLV | 3.3 |
| YTVEFDRDKV | 4.5 |
| YVGDTSMMVI | 72 |
| YVHEGVSYEV | 14 |
| YVILKDPRI | 847 |
| YVIPDELIDV | 350 |
| YVSPTEMVDV | 235 |
| YVSVMNFIPI | 55 |

Reference: the Immune Epitope Database (IEDB)
